Patent publication EP4541885A1, “OPTIMIZED PHLOROGLUCINOL SYNTHASES” (priority 2023, dated 2025)

Legend:
Assay in all cases: Kinetic parameters determination (HPLC monitoring of MLC consumed and CoA produced)
[1] = tested on: CC(C)(COP(=O)(O)OP(=O)(O)OC[C@H]1O[C@@H](n2cnc3c(N)ncnc32)[C@H](O)[C@@H]1OP(=O)(O)O)[C@@H](O)C(=O)NCCC(=O)NCCSC(=O)CC(=O)O; assay type: biochemical, Tsukamurella pulmonis; conditions: other: MLC 5-100 µM, sodium phosphate buffer 50 mM pH 7, 30°C, 0.5 µM pure enzyme
Experimental: (§1) The selected PhlD_Tpu sequences are amplified from the yeast expression plasmid and fused with a 6xHis tag encoded at the C-terminus. This fusion is inserted into the pET26b(+) plasmid, between the XhoI and NdeI restriction sites (as shown in Figure 4), with the […] controlling its expression. The recombinant plasmid is used to transform E. coli BL21(DE3) competent cells, which are grown in LB medium (10 g/L NaCl, 10 g/L Tryptone, 5 g/L yeast extract) at 37° C with shaking, in a final volume of 500 mL. The expression of the recombinant plasmid is initiated by adding 0.1 mM of IPTG when the OD600nm reaches 0.4-0.5. The cells are then allowed to grow overnight at 20°C until they reach an OD600nm of approximately 1.5-1.6.
(§2) E. coli BL21(DE3) cells transformed as described in paragraph 1.2.4 above were disrupted by Fast-Prep at a speed setting of 6 m/sec for 3 cycles of 45 sec. The supernatant is filtered on a 0.45 µm membrane before being applied to a 1 mL Talon® Resin column. The column is washed first with 10 column volumes of sodium phosphate buffer (50 mM, pH7; NaCl 100 mM) and with 10 column volumes of sodium phosphate buffer with 10 mM of imidazole ([…], Phosphate buffer 50 mM, 500 mM imidazole pH 8.5; 100mM NaCl). Protein elution is performed using 150 mM imidazole in sodium phosphate buffer (50 mM pH 7, NaCl 100mM). Collected fractions are pooled and diafiltrated using 5 volumes of sodium phosphate buffer (50 mM pH 7, NaCl 100mM) using a 30 kDa diafiltration unit (Amicon ®Ultra, Merck) before reducing the volume to 500 µL.
(§3) The concentrate is applied on a gel filtration column (S200 TRICORN 10/300 Superdex 200). Elution is performed with an isocratic gradient of sodium phosphate buffer (50 mM pH 7, NaCl 100mM). The purity of the various fractions obtained is checked by SDS-PAGE (Mini-PROTEAN TGX Stain-Free Gels, Bio Rad)
(§4) In order to access the kinetic parameters of PhlD_Tpu, the concentrations of MLC consumed and CoA produced were monitored by HPLC. The experiments were run for 120 sec and only the linear part of CoA variation with time was used to calculate initial velocity. The experiments were carried using a range of MLC concentrations (5-100 µM) in sodium phosphate buffer (50 mM pH 7), at 30°C, and with 0.5 µM of pure enzyme. At 10, 20, 30, 50, 60 and 120 sec, 100 µL aliquots of the reaction mixture were quenched with 10 µL of 10% (v/v) formic acid and kept at room temperature before HPLC analysis. With these conditions, the CoA production increased linearly with time until 50 sec. Table 7: HPLC conditions for MLC and CoA separation and quantification.

[2] = tested on: Tsukamurella pulmonis phloroglucinol synthase PhlD_Tpu variant M27 (A124P, A154P, S177A, S236P, E268Q, E271R, A298D), SEQ ID NO: 3; assay type: biochemical
Experimental: as §1, §2, §3, §4

[3] = target: T1, Tsukamurella pulmonis phloroglucinol synthase PhlD_Tpu WT, wild type, SEQ ID NO: 1 (Tsukamurella pulmonis, UniProt A0A1H1FBR5); assay type: biochemical; conditions: MLC 5-100 µM, sodium phosphate buffer 50 mM pH 7, 30°C, 0.5 µM pure enzyme
T1 sequence (A0A1H1FBR5 1-390): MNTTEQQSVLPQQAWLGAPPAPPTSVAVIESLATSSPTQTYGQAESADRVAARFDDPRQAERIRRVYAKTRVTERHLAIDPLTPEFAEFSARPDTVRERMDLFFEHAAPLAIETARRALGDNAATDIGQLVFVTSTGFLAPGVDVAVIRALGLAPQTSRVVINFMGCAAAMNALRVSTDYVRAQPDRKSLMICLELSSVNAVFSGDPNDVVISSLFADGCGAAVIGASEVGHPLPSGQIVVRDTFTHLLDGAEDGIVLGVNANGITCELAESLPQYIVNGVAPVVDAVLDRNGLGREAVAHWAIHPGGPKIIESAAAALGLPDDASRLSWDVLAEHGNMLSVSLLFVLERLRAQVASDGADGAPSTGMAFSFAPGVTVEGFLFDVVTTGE
Experimental: as §1, §2, §3, §4

[4] = substrate: CC(C)(COP(=O)(O)OP(=O)(O)OC[C@H]1O[C@@H](n2cnc3c(N)ncnc32)[C@H](O)[C@@H]1OP(=O)(O)O)[C@@H](O)C(=O)NCCC(=O)NCCSC(=O)CC(=O)O; assay type: biochemical, Tsukamurella pulmonis; conditions: other: MLC 5-100 µM, sodium phosphate buffer 50 mM pH 7, 30°C, 0.5 µM pure enzyme; remark: listed apart in the source
Experimental: as §1
E. coli BL21(DE3) cells transformed as described in paragraph 1.2.4 above were disrupted by Fast-Prep at a speed setting of 6 m/sec for 3 cycles of 45 sec. The supernatant is filtered on a 0.45 µm membrane before being applied to a 1 mL Talon® Resin column. […]
In order to access the kinetic parameters of PhlD_Tpu, the concentrations of MLC consumed and CoA produced were monitored by HPLC. […] Table 7: HPLC conditions for MLC and CoA separation and quantification.

In the case of “Tsukamurella pulmonis phloroglucinol synthase PhlD_Tpu variant M27 (A124P, A154P, S177A, S236P, E268Q, E271R, A298D), SEQ ID NO: 3 (Tsukamurella pulmonis; A124P/A154P/A298D/E268Q/E271R/S177A/S236P)”, the Km [1] is reported as 4.9 ± 0.544 µM, the kcat [1] is reported as 0.28 ± 0.06 s⁻¹ and the kcat/Km [1] is reported as 57000 M⁻¹ s⁻¹.

With `CC(C)(COP(=O)(O)OP(=O)(O)OC[C@H]1O[C@@H](n2cnc3c(N)ncnc32)[C@H](O)[C@@H]1OP(=O)(O)O)[C@@H](O)C(=O)NCCC(=O)NCCSC(=O)CC(=O)O` [malonyl-CoA] the “kcat reduced by a factor (M27 vs PhlD_Tpu WT)” value ([2]; factor of reduction relative to PhlD_Tpu WT) was 1.3, the “KM relative to PhlD_Tpu WT” value ([2]; relative to PhlD_Tpu WT) was “twice lower” and the “catalytic efficiency, times higher compared to PhlD_Tpu WT” value ([2]; relative to PhlD_Tpu WT) was 1.6. For the same molecule, the kcat [3] was 0.38 s⁻¹.

B1: Tsukamurella pulmonis phloroglucinol synthase PhlD_Tpu WT, wild type, SEQ ID NO: 1 (Tsukamurella pulmonis) (protein)
chain: T1 sequence (A0A1H1FBR5 1-390)
Molecule B1 has a Km [4] of 10.52 µM.
